The experiment deals with CyPPO17. The experiment is described as follows: Herbicide tolerance test of CyPPO17 wild type and variants in PPO-deficient E. coli BT3(ΔPPO). In kind it is cell-based, Thermosynechococcus sp. NK55a. The settings on record: BT3(ΔPPO) transformants, two or more amino acid mutations, dark; for Herbicide tolerance, tiafenacil: 37° C., 16 to 20 hours, relative to wild type at highest concentration (50, 200 μM); for Herbicide tolerance, flumioxazin: relative to wild type at highest concentration (100, 200 μM); for Herbicide tolerance, sulfentrazone: relative to wild type at highest concentration (200, 400 μM). As for the experimental part: The mutated CyPPO gene obtained from the Example 2 was transformed to BT3 (ΔPPO) strain which is deficient of PPO activity and cultured in LB media with PPO-inhibiting herbicide, thereby examining whether growth of transformed BT3 was not inhibited.
BT3 competent cells were transformed with the pET303-CyPPO16 and pET303-CyPPO17 plasmids and those with a mutation(s) constructed in Example 2 respectively, and were cultured in LB agar media containing carbenicillin (Gold Biotechnology, Co., Ltd.).
Single colony of E. coli transformed with each CyPPO gene was cultured in 3 ml of LB broth containing carbenicillin overnight, and then was subcultured until absorbance (0D600) reached 0.5 to 1. Then, it was diluted with LB broth to OD600=0.5. Again, the diluted solution was serially diluted 4 times by a factor of one tenth.
The LB agar media (LB 25 g/l, Bacto agar 15 g/l) containing carbenicillin (100 μg/ml) and 0 to 4,000 μM of various herbicides dissolved in DMSO was prepared. Next, 10 μl of each diluted solution was dropped on the plate and cultured at 37° C. under light (Tables 7 and 9, FIGS. 2 to 6, and 18 to 22) or dark (Tables 8 and 10, FIGS. 7 to 17, and 23 to 33) for 16 to 20 hours. Then, extent of tolerance was evaluated.
The extent of herbicide tolerance of the mutated genes was evaluated by comparing that of mutated genes with that of wild type. The relative tolerance was represented with “+” as a factor of 10 times. Evaluation result was listed in Tables 7 to10 and FIGS. 2 to 33:
In Tables 7 to 10, tolerance level was presented as of tolerance of wild type and of variants equivalent to that of wild type, and was done as ‘+’ per each 10 fold resistance until ‘+++++’ as maximal resistance. (Tolerance level was evaluated by relative growth level of variants to that of wild type in the media containing highest concentration of herbicide; ‘+’=1-9 fold higher tolerance, ‘++’=10-99 fold higher tolerance, ‘+++’=100-999 fold higher tolerance, ‘++++’=1,000-9,999 fold higher tolerance, ‘+++++’=more than 10,000 fold higher tolerance)
The concentrations of herbicides were written above the photographs of tolerance test. A dilution series (0D600=0.5, 0.05, 0.005, 0.0005, 0.00005) was made and spotted on LB agar plates supplemented with herbicides.

B1: V304M + F359I: CyPPO17 variant (protein)
chain: MEVDVAIVGGGLSGLSVAWRLQQSAPQYSGVLLEASDRLGGNITTQGAEGFVWELGPNSFAPTPALLQLIAEVGLHSELIRGDRHLPRYIYWRGELYPLEPTRPLALATSNLLSPWGKVRAALGALGFVPPYLGSGDESVNSFFRRHLGQEVAERLVAPFVSGVYAGDPQQLSAAAAFRRIAQLEKLGGGLIAGALRLRRQQPPKPRPPAEVQMRPGELGSFKEGLAALPRAIAQQLKAPVHLQTPVEAITPEPNGGYLLRSGEQTWQARSVVLATPAYQTAALVAPFQPAIARVLAAIPYPTMACVVLAYPAGLGRSVRPGFGVLIPRGQGIRTLGTIWSSCLFPQRTPAGWQVFTSIIGGATDPDLASLREEAIVQQVQQDLTRLLDLPAAKARLLGMKVWRRAIPQYLVGYPQQWQQVTHALSQTPGLFLCSNYAEGVALGDRVEHGNRTAAAVAAYLSGGQS
modifications: Synthetic (Protoporphyrinogen IX oxidase (CyPPO17) of Thermosynechococcus sp. NK55a)
notes: CyPPO17 variant
B1: the “Herbicide tolerance, tiafenacil” value is reported as “+++ (‘+++’=100-999 fold higher tolerance)”; the “Herbicide tolerance, flumioxazin” value is given as “+++ (‘+++’=100-999 fold higher tolerance)”; the “Herbicide tolerance, sulfentrazone” value is reported as “++ (‘++’=10-99 fold higher tolerance)”.

B2: V164C + A166L + L326T + F359M: CyPPO17 variant (protein)
chain: MEVDVAIVGGGLSGLSVAWRLQQSAPQYSGVLLEASDRLGGNITTQGAEGFVWELGPNSFAPTPALLQLIAEVGLHSELIRGDRHLPRYIYWRGELYPLEPTRPLALATSNLLSPWGKVRAALGALGFVPPYLGSGDESVNSFFRRHLGQEVAERLVAPFVSGCYLGDPQQLSAAAAFRRIAQLEKLGGGLIAGALRLRRQQPPKPRPPAEVQMRPGELGSFKEGLAALPRAIAQQLKAPVHLQTPVEAITPEPNGGYLLRSGEQTWQARSVVLATPAYQTAALVAPFQPAIARVLAAIPYPTVACVVLAYPAGLGRSVRPGFGVTIPRGQGIRTLGTIWSSCLFPQRTPAGWQVFTSMIGGATDPDLASLREEAIVQQVQQDLTRLLDLPAAKARLLGMKVWRRAIPQYLVGYPQQWQQVTHALSQTPGLFLCSNYAEGVALGDRVEHGNRTAAAVAAYLSGGQS
modifications: Synthetic (Protoporphyrinogen IX oxidase (CyPPO17) of Thermosynechococcus sp. NK55a)
notes: CyPPO17 variant
For B2, the “Herbicide tolerance, tiafenacil” value was “+++++ (‘+++++’=more than 10,000 fold higher tolerance)”; the “Herbicide tolerance, flumioxazin” value is reported as “+++++ (‘+++++’=more than 10,000 fold higher tolerance)”; the “Herbicide tolerance, sulfentrazone” value was “++++ (‘++++’=1,000-9,999 fold higher tolerance)”.

B3: R88A + V164C + A166C + V304M + L326T + F359M: CyPPO17 variant (protein)
chain: MEVDVAIVGGGLSGLSVAWRLQQSAPQYSGVLLEASDRLGGNITTQGAEGFVWELGPNSFAPTPALLQLIAEVGLHSELIRGDRHLPAYIYWRGELYPLEPTRPLALATSNLLSPWGKVRAALGALGFVPPYLGSGDESVNSFFRRHLGQEVAERLVAPFVSGCYCGDPQQLSAAAAFRRIAQLEKLGGGLIAGALRLRRQQPPKPRPPAEVQMRPGELGSFKEGLAALPRAIAQQLKAPVHLQTPVEAITPEPNGGYLLRSGEQTWQARSVVLATPAYQTAALVAPFQPAIARVLAAIPYPTMACVVLAYPAGLGRSVRPGFGVTIPRGQGIRTLGTIWSSCLFPQRTPAGWQVFTSMIGGATDPDLASLREEAIVQQVQQDLTRLLDLPAAKARLLGMKVWRRAIPQYLVGYPQQWQQVTHALSQTPGLFLCSNYAEGVALGDRVEHGNRTAAAVAAYLSGGQS
modifications: Synthetic (Protoporphyrinogen IX oxidase (CyPPO17) of Thermosynechococcus sp. NK55a)
notes: CyPPO17 variant
For B3, the “Herbicide tolerance, tiafenacil” value is “+++++ (‘+++++’=more than 10,000 fold higher tolerance)”; the “Herbicide tolerance, flumioxazin” value is given as “+++++ (‘+++++’=more than 10,000 fold higher tolerance)”; the “Herbicide tolerance, sulfentrazone” value is listed as “++++ (‘++++’=1,000-9,999 fold higher tolerance)”.

B4: R88A + V164C + A166L + L326T + F359M: CyPPO17 variant (protein)
chain: MEVDVAIVGGGLSGLSVAWRLQQSAPQYSGVLLEASDRLGGNITTQGAEGFVWELGPNSFAPTPALLQLIAEVGLHSELIRGDRHLPAYIYWRGELYPLEPTRPLALATSNLLSPWGKVRAALGALGFVPPYLGSGDESVNSFFRRHLGQEVAERLVAPFVSGCYLGDPQQLSAAAAFRRIAQLEKLGGGLIAGALRLRRQQPPKPRPPAEVQMRPGELGSFKEGLAALPRAIAQQLKAPVHLQTPVEAITPEPNGGYLLRSGEQTWQARSVVLATPAYQTAALVAPFQPAIARVLAAIPYPTVACVVLAYPAGLGRSVRPGFGVTIPRGQGIRTLGTIWSSCLFPQRTPAGWQVFTSMIGGATDPDLASLREEAIVQQVQQDLTRLLDLPAAKARLLGMKVWRRAIPQYLVGYPQQWQQVTHALSQTPGLFLCSNYAEGVALGDRVEHGNRTAAAVAAYLSGGQS
modifications: Synthetic (Protoporphyrinogen IX oxidase (CyPPO17) of Thermosynechococcus sp. NK55a)
notes: CyPPO17 variant
With B4, the “Herbicide tolerance, tiafenacil” value was “+++++ (‘+++++’=more than 10,000 fold higher tolerance)”; the “Herbicide tolerance, flumioxazin” value was “+++++ (‘+++++’=more than 10,000 fold higher tolerance)”; the “Herbicide tolerance, sulfentrazone” value is given as “++++ (‘++++’=1,000-9,999 fold higher tolerance)”.

B5: V304M + L326T + F359M: CyPPO17 variant (protein)
chain: MEVDVAIVGGGLSGLSVAWRLQQSAPQYSGVLLEASDRLGGNITTQGAEGFVWELGPNSFAPTPALLQLIAEVGLHSELIRGDRHLPRYIYWRGELYPLEPTRPLALATSNLLSPWGKVRAALGALGFVPPYLGSGDESVNSFFRRHLGQEVAERLVAPFVSGVYAGDPQQLSAAAAFRRIAQLEKLGGGLIAGALRLRRQQPPKPRPPAEVQMRPGELGSFKEGLAALPRAIAQQLKAPVHLQTPVEAITPEPNGGYLLRSGEQTWQARSVVLATPAYQTAALVAPFQPAIARVLAAIPYPTMACVVLAYPAGLGRSVRPGFGVTIPRGQGIRTLGTIWSSCLFPQRTPAGWQVFTSMIGGATDPDLASLREEAIVQQVQQDLTRLLDLPAAKARLLGMKVWRRAIPQYLVGYPQQWQQVTHALSQTPGLFLCSNYAEGVALGDRVEHGNRTAAAVAAYLSGGQS
modifications: Synthetic (Protoporphyrinogen IX oxidase (CyPPO17) of Thermosynechococcus sp. NK55a)
notes: CyPPO17 variant
Consider B5, for which the “Herbicide tolerance, tiafenacil” value was “++++ (‘++++’=1,000-9,999 fold higher tolerance)”; the “Herbicide tolerance, flumioxazin” value is listed as “++++ (‘++++’=1,000-9,999 fold higher tolerance)”; the “Herbicide tolerance, sulfentrazone” value is given as “+++ (‘+++’=100-999 fold higher tolerance)”.

B6: V164C + A166L + V304M + L326T + F359M: CyPPO17 variant (protein)
chain: MEVDVAIVGGGLSGLSVAWRLQQSAPQYSGVLLEASDRLGGNITTQGAEGFVWELGPNSFAPTPALLQLIAEVGLHSELIRGDRHLPRYIYWRGELYPLEPTRPLALATSNLLSPWGKVRAALGALGFVPPYLGSGDESVNSFFRRHLGQEVAERLVAPFVSGCYLGDPQQLSAAAAFRRIAQLEKLGGGLIAGALRLRRQQPPKPRPPAEVQMRPGELGSFKEGLAALPRAIAQQLKAPVHLQTPVEAITPEPNGGYLLRSGEQTWQARSVVLATPAYQTAALVAPFQPAIARVLAAIPYPTMACVVLAYPAGLGRSVRPGFGVTIPRGQGIRTLGTIWSSCLFPQRTPAGWQVFTSMIGGATDPDLASLREEAIVQQVQQDLTRLLDLPAAKARLLGMKVWRRAIPQYLVGYPQQWQQVTHALSQTPGLFLCSNYAEGVALGDRVEHGNRTAAAVAAYLSGGQS
modifications: Synthetic (Protoporphyrinogen IX oxidase (CyPPO17) of Thermosynechococcus sp. NK55a)
notes: CyPPO17 variant
For B6, the “Herbicide tolerance, tiafenacil” value is “+++++ (‘+++++’=more than 10,000 fold higher tolerance)”; the “Herbicide tolerance, flumioxazin” value is “+++++ (‘+++++’=more than 10,000 fold higher tolerance)”; the “Herbicide tolerance, sulfentrazone” value is recorded as “++++ (‘++++’=1,000-9,999 fold higher tolerance)”.

The record behind these values is patent US11219221B2 (FarmHannong Co., Ltd., priority 2017, dated 2022).
